One data set addresses PilG257-410 (Neisseria meningitidis MC58, UniProt Q7DDR1 257-410). The experiment in a line: South-western; Optimized EMSA: 50 mM HEPES pH 7.5, 100 mM NaCl, 5 mM MgCl2, 1 mM DTT, 10% glycerol, 0.05% DDM, on ice 15 min, 0.45 nM DNA; first EMSA: 25 mM NaH2PO4 pH 8.0, 150 mM NaCl, 1 mM DTT, 10% glycerol, 0.05% DDM, on ice. As to conditions: protein: recombinant, tags: C-terminal 6xHis, label: 32P end label. Background: Mobility shift assays separate free from complexed probe on a gel.

The target of a further data set is PilG30-80 (Neisseria meningitidis MC58, UniProt Q7DDR1 30-80). Described as above. As to conditions: protein: recombinant, tags: C-terminal 6xHis, label: 32P end label.
The next data set concerns the target PilG166-410 (Neisseria meningitidis MC58, UniProt Q7DDR1 166-410). The data set is described as above. As to conditions: protein: recombinant, tags: C-terminal 6xHis, label: 32P end label.
A further data set deals with PilG1-60 (Neisseria meningitidis MC58, UniProt Q7DDR1 1-60). The description is as above. As to conditions: protein: recombinant, tags: C-terminal 6xHis, label: 32P end label.
The target in data set [1] is T1, PilG1-80 (Neisseria meningitidis MC58, UniProt Q7DDR1 1-80). The data set can be described thus: EMSA; 5 mM MgCl2; Optimized EMSA: 50 mM HEPES pH 7.5, 100 mM NaCl, 5 mM MgCl2, 1 mM DTT, 10% glycerol, 0.05% DDM, on ice 15 min, 0.45 nM DNA; first EMSA: 25 mM NaH2PO4 pH 8.0, 150 mM NaCl, 1 mM DTT, 10% glycerol, 0.05% DDM, on ice. As to conditions: protein: recombinant; tags: C-terminal 6xHis; label: 32P end label; blunt.

In another data set the target is PilG Q55A (Neisseria meningitidis MC58, UniProt Q7DDR1 1-410, Q55A). The data set can be described thus: South-western; same as FL; Optimized EMSA: 50 mM HEPES pH 7.5, 100 mM NaCl, 5 mM MgCl2, 1 mM DTT, 10% glycerol, 0.05% DDM, on ice 15 min, 0.45 nM DNA; first EMSA: 25 mM NaH2PO4 pH 8.0, 150 mM NaCl, 1 mM DTT, 10% glycerol, 0.05% DDM, on ice. As to conditions: protein: recombinant, tags: C-terminal 6xHis, label: 32P end label.

Another data set addresses PilG SS62-63AA (Neisseria meningitidis MC58, UniProt Q7DDR1 1-410, S62A;S63A). The data set is described as above. As to conditions: protein: recombinant, tags: C-terminal 6xHis, label: 32P end label.
Data set [2] concerns the target T2, PilG FL (Neisseria meningitidis MC58, UniProt Q7DDR1 1-410). The data set can be described thus: EMSA; optimized EMSA; R2 0.96?; Optimized EMSA: 50 mM HEPES pH 7.5, 100 mM NaCl, 5 mM MgCl2, 1 mM DTT, 10% glycerol, 0.05% DDM, on ice 15 min, 0.45 nM DNA; first EMSA: 25 mM NaH2PO4 pH 8.0, 150 mM NaCl, 1 mM DTT, 10% glycerol, 0.05% DDM, on ice. As to conditions: protein: recombinant; tags: C-terminal 6xHis; label: 32P end label; blunt.

Data set [3] concerns the target T3, PilG EEE39-41AAA (Neisseria meningitidis MC58, UniProt Q7DDR1 1-410, E39A;E40A;E41A). The experiment in a line: South-western; increased vs FL per text; Optimized EMSA: 50 mM HEPES pH 7.5, 100 mM NaCl, 5 mM MgCl2, 1 mM DTT, 10% glycerol, 0.05% DDM, on ice 15 min, 0.45 nM DNA; first EMSA: 25 mM NaH2PO4 pH 8.0, 150 mM NaCl, 1 mM DTT, 10% glycerol, 0.05% DDM, on ice. As to conditions: protein: recombinant; tags: C-terminal 6xHis; label: 32P end label; blunt.

The next data set deals with PilG RKK43-45AAA (Neisseria meningitidis MC58, UniProt Q7DDR1 1-410, R43A;K44A;K45A). The data set can be described thus: EMSA; extrapolated; about 50% bound at 5 uM per text; Optimized EMSA: 50 mM HEPES pH 7.5, 100 mM NaCl, 5 mM MgCl2, 1 mM DTT, 10% glycerol, 0.05% DDM, on ice 15 min, 0.45 nM DNA; first EMSA: 25 mM NaH2PO4 pH 8.0, 150 mM NaCl, 1 mM DTT, 10% glycerol, 0.05% DDM, on ice. As to conditions: protein: recombinant; tags: C-terminal 6xHis; label: 32P end label; blunt.

Data set [4] addresses T4, PilG1-178 (Neisseria meningitidis MC58, UniProt Q7DDR1 1-178). The experiment in a line: EMSA; 5 mM MgCl2; DUS+ duplex assigned by Table 2 EMSA footnote; Optimized EMSA: 50 mM HEPES pH 7.5, 100 mM NaCl, 5 mM MgCl2, 1 mM DTT, 10% glycerol, 0.05% DDM, on ice 15 min, 0.45 nM DNA; first EMSA: 25 mM NaH2PO4 pH 8.0, 150 mM NaCl, 1 mM DTT, 10% glycerol, 0.05% DDM, on ice. As to conditions: protein: recombinant; tags: C-terminal 6xHis; label: 32P end label; blunt.

Data set [5] addresses T4, PilG1-178. The data set can be described thus: South-western; Optimized EMSA: 50 mM HEPES pH 7.5, 100 mM NaCl, 5 mM MgCl2, 1 mM DTT, 10% glycerol, 0.05% DDM, on ice 15 min, 0.45 nM DNA; first EMSA: 25 mM NaH2PO4 pH 8.0, 150 mM NaCl, 1 mM DTT, 10% glycerol, 0.05% DDM, on ice. As to conditions: protein: recombinant; tags: C-terminal 6xHis; label: 32P end label.
The next data set concerns the target PilG1-256 (Neisseria meningitidis MC58, UniProt Q7DDR1 1-256). The description is as above. As to conditions: protein: recombinant; tags: C-terminal 6xHis; label: 32P end label.
A further data set addresses PilG1-140 (Neisseria meningitidis MC58, UniProt Q7DDR1 1-140). Described as above. As to conditions: protein: recombinant; tags: C-terminal 6xHis; label: 32P end label.
Data set [6] has as its target T1, PilG1-80. The description is as above. As to conditions: protein: recombinant; tags: C-terminal 6xHis; label: 32P end label.
Data set [7] concerns the target T2, PilG FL. The description is as above. As to conditions: protein: recombinant; tags: C-terminal 6xHis; label: 32P end label.
The target in data set [8] is T3, PilG EEE39-41AAA. The data set can be described thus: South-western; increased vs FL; Optimized EMSA: 50 mM HEPES pH 7.5, 100 mM NaCl, 5 mM MgCl2, 1 mM DTT, 10% glycerol, 0.05% DDM, on ice 15 min, 0.45 nM DNA; first EMSA: 25 mM NaH2PO4 pH 8.0, 150 mM NaCl, 1 mM DTT, 10% glycerol, 0.05% DDM, on ice. As to conditions: protein: recombinant; tags: C-terminal 6xHis; label: 32P end label.

These results are taken from article PMC4527729, “The Inner Membrane Protein PilG Interacts with DNA and the Secretin PilQ in Transformation”.

B1: HH7HH8 (dsDNA)
DNA 1: AACAACAACAAATGCCGTCTGAACCAACATGCCGTCTGAAAACAACAACAAC
DNA 2: GTTGTTGTTGTTTTCAGACGGCATGTTGGTTCAGACGGCATTTGTTGTTGTT
In the case of B1, the binding result is recorded as “no binding” with PilG257-410 (blunt); “no binding” in the data set with PilG30-80 (blunt); “no binding” in the data set with PilG166-410 (blunt); “no binding” with PilG1-60 (blunt); “binds” with PilG Q55A (blunt); “binds” with PilG SS62-63AA (blunt). Moreover, the binding result in the data set with PilG EEE39-41AAA [3] is recorded as “binds”. Besides, the “apparent K (half saturation)” value in the data set with PilG1-80 [1] is 283 nM; with PilG FL [2], 1070 nM; with PilG RKK43-45AAA, around 685 µM; with PilG1-178 [4], 269 nM.

B2: HH9 (ssDNA)
DNA: GTTGTTGTTGTTATGCCGTCTGAAGTTGGATGCCGTCTGAATTGTTGTTGTT
In the case of B2, the binding result was “binds” in the data set with PilG1-178 [5]; “no binding” with PilG257-410; “no binding” with PilG30-80; “no binding” with PilG166-410; “binds” with PilG1-256; “binds” with PilG1-140. In addition, the binding result is recorded as “binds” with PilG1-80 [6]; “no binding” in the data set with PilG1-60; “binds” in the data set with PilG FL [7]; “binds” with PilG Q55A; “binds” with PilG SS62-63AA; “binds” in the data set with PilG EEE39-41AAA [8].
